Data as given in US20190324031A1 (MARS, published 2019).
Numbered stars: 1 amine (or outer) side, 2 acyl side, 3 side chain; on linkers, the order of the positions; unused ones are H or OH. Square brackets hold non-standard residues; d marks the D form. Ends that are not written are not given here. γGlu = O=C(O)[C@H](CCC(=O)[*:2])N[*:1]

Molecular target: T1, feline calcium-sensing receptor (fCaSR) from Felis catus, full length, expressed in HEK T-Rex/natClytin cells … (Felis catus)
T1 chain: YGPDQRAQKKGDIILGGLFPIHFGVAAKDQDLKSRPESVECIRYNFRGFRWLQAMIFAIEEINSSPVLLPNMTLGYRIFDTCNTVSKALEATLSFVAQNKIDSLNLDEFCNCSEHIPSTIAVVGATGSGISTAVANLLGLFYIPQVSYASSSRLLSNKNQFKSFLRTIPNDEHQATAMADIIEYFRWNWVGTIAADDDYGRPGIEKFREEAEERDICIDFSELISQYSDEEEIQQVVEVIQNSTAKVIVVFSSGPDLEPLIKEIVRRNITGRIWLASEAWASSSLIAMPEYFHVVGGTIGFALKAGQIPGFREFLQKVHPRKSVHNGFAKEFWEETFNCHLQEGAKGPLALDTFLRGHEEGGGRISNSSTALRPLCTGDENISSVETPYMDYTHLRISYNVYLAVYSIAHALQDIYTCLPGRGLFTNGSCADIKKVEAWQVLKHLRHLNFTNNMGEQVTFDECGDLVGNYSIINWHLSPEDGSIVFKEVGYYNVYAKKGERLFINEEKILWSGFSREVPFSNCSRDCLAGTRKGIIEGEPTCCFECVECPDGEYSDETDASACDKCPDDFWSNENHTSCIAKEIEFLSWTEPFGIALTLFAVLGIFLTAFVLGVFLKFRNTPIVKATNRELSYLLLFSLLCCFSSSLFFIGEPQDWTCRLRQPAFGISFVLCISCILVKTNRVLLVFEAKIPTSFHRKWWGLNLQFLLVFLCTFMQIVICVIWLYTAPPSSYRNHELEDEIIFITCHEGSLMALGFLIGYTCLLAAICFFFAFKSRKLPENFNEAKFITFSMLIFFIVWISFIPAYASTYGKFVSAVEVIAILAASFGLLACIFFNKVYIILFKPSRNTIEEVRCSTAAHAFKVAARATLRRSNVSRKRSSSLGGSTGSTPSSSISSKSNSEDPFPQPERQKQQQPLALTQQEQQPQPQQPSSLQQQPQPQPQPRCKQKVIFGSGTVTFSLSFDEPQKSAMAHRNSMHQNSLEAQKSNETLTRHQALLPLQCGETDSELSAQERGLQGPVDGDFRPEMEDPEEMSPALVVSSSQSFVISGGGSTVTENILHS
Test: cell-based or functional assay

B1: L-Glutathione (γ-Glu-Cys-Gly) (peptide)
peptide: [γGlu]-Cys-Gly
modifications: also: γ-glutamyl peptide bond between Glu side chain and Cys
- Agonist EC50: 8.2 mM
